Data on 69 sequences can be found in the domain aggregation screens of Martell et al. (2025).

The series is described as follows: soluble fraction after stress (log2 fold change); higher = more stays soluble; pooled small domains, quantitative proteomics. The note with it: stress: pH 4. A digest of the protocol:
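Pooled custom libraries of small protein domains were stressed at pH 4 and then measured by high-throughput quantitative proteomics. The fold change in the amount of each domain that stays soluble after the acid stress serves as a measure of aggregation propensity. Fold changes are given on a log2 scale, and higher values mean more of the domain stayed soluble.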
Turning to “HMSRAARLALDALPDEWAQFAESRGLAGSAMAETWETFRDYWQAQPGQKGVKADWAATWRNWVRRETQNRG”, the “soluble fraction (log2)” value is -0.074.

In the case of “HMSRDYKTELQERLQVNGPVKIEYQVIAEDESKPSFKVQLLVNDKKISEGQGRNKKAAEQQAAQAAL”, the “soluble fraction (log2)” value was 0.0788.

On to “HMSREEFLTELRKALQGRVSQQTVNDNLRYYEEYILTESHKGKTEAEVIAELGNPRLLAKSIIDAENAT”, for which the “soluble fraction (log2)” value is -0.0903.

“HMSRESNISTGRQLLEAQLPTWGYKKVEDIPSKQMKTALDAFNYKDVESLLQGLGEGSVALTTALRRLMP”: the “soluble fraction (log2)” value was -0.926.

On to “HMSRFLEGILQRRAGGKNYFVPDDGSNPIFIADRNSAGAANGDRVRIAQFARRPRSGPEGEVVEILKRAK”, for which the “soluble fraction (log2)” value is 0.153.

As to “HMSRGAIVTGTVIEKNQSGIYVDLGYKSDGIVPIEEFDGEESKYNVGDQIRVYVKKVDDGHGQLML”, the “soluble fraction (log2)” value was -0.135.

Turning to “HMSRGTRIDPNWQPSPEDRALARAEGFSDPEIDREALQFRDYWLGASGSNAVKLDWSATWRNWVRRAATNF”, the “soluble fraction (log2)” value is -0.204.

Take “HMSRKERERSQHRRDILAAGEKIFAQKGYFNATIEEIAREAEFSVGTIYNFFSNKETLYQEIIRSI”: the “soluble fraction (log2)” value is -0.43.

For “HMSRLQDAELQAQIDKMAGAMQLRDIPVYVQDIPTINGLAAPDGRVFITQGFIDKYKLGEVSAGEIASVI”, the “soluble fraction (log2)” value is 0.316.

In the case of “HMSRPLISNMLRLLNLPPTVQRKVAAGVISAGHARALLGLNDEKEIEKLANRIVAEGLSVRATEEIVAIA”, the “soluble fraction (log2)” value was -1.28.

For “HMSRWHEFLNKSEDGMKELDEQNQKVLTLLILQRFYQTPFQAKEDEEFYREFFERLSSVNEILG”, the “soluble fraction (log2)” value was -0.283.

In the case of “HMSSAYLTVRGIDIDVIYKDIKNLHIAVYPPFGRVRVAAPSHLDDDQVRLAVIQRLTWIKRQRERLRST”, the “soluble fraction (log2)” value is -0.336.

In the case of “HMSSDEAEYKLLLGQEGVAKSPLRPSGVVDFSGRRLDVQTLGDFIESGETVVVKQVNGHRVLVERK”, the “soluble fraction (log2)” value turned out to be 0.0409.

Regarding “HMSSDEEQLATLTRLLQKQEQIIQTLGPRNPMVSLQQYANTITKVIEMAGFKDTSQFINSQIP”, the “soluble fraction (log2)” value was -0.0429.

As for “HMSSDLESVIGTHSQEANFALRSWGWIQPDETWKNLRPDQVSQILERANEFMAKAIESFANAQSE”, the “soluble fraction (log2)” value is -0.984.

“HMSSDLLGVRVRRARARAGLTRRRLSLLSGVSERFLAQLESGQGNISIVLIRRVAAALGAELVELIGS”: the “soluble fraction (log2)” value was -0.0528.

As for “HMSSEDTQSRDRARKELSNEMSRIMKRYGLDYQPRDNADDIMNRLKAAGADENTLAYVQEKLK”, the “soluble fraction (log2)” value came to 0.0559.

For “HMSSEITYDKFIEMVDKDQVKEVTLQSGVLTVVPKIQKSYYQNASYKVNQMEDVDALTKRLEGTGIVFHY”, the “soluble fraction (log2)” value is 0.129.

Turning to “HMSSEITYDKFIEMVEEGNVKEVTLQSDTLTIKPKHQDSAFSEKEYYTRQMESADQLTERLEGTGIEFHS”, the “soluble fraction (log2)” value was -0.642.

For “HMSSEQRSVLFPNLAETDKVAVIEALMAAGVNARVDSASGRVTVPSGDYYNSRAILAAQGLPTS”, the “soluble fraction (log2)” value is -0.175.

Take “HMSSETTVPAVVGIKEDKARQLASEQGLRLRVKSREESADVEEGIIISQDPNSNTKVKKGDEIEVVVS”: the “soluble fraction (log2)” value worked out at 0.32.

As to “HMSSFSESFHKALNNLDDKHKSVFSLRHFEGFSMKEIAETLNINEGTVKSRLFYATKTLAGALKEF”, the “soluble fraction (log2)” value was -1.29.

For the sequence “HMSSGKTGTITLQPKQTVYGITKQYKISEADLRKLNPQLDSNLKIGDKITLPLDNIQRYSDSSSNVAQT”, the “soluble fraction (log2)” value turned out to be 0.22.

Turning to “HMSSGLLTVQEQRILEHLANGERNGDIAGRLHISEGTVKWHLHNMYRKLDAATRTQAVARARALRL”, the “soluble fraction (log2)” value was -0.428.

In the case of “HMSSIGERISDVRKARGYTQDQLAERIHVSRQTISHWENERALPDFESIKQLSQVLGYDFSS”, the “soluble fraction (log2)” value was determined as 0.0836.

For the sequence “HMSSIHQDAKQQLHEYIRTYIQPLMRAGKQVTVWDIIGHVTIRKPKLVQKIGTQQLINMVQDLLE”, the “soluble fraction (log2)” value was -0.302.

As to “HMSSKSDQLYLQLRRRISAMKDGEPFPTVRQLMTEYQVSQSTVTPAINQLKEKGLIEAYVGRGSFVSKK”, the “soluble fraction (log2)” value came to 0.161.

For “HMSSKTKVEDLGLSTRTLNALIGGSIKTAGGLTRKSESDLLSLDGLGEKGITEIKEALENIGLSLK”, the “soluble fraction (log2)” value came to 0.0218.

For the sequence “HMSSLKKISIDELSPGMYVHSIVEQKGSVKIKSQGKVLKQAVVDALRKRGVKTLLIDLSKQFNPETGEP”, the “soluble fraction (log2)” value is 0.346.

In the case of “HMSSLTPRETEVLSRMAQGDANTSIAERLVITEKAVQKHINAIFAKLGLAEEPTSARRVLAVLAFLR”, the “soluble fraction (log2)” value is -0.407.

Take “HMSSLTQREYEIAELVADGLSNKAIAAELSISHTTAARHVANIMNKLGFNSRSQIAAWVADRAQG”: the “soluble fraction (log2)” value is -0.46.

On to “HMSSNLSLHKEGNKIVILGLEGKSVIEVYDLMGRLLSSQTNYNPKQEITLLQPVIIRVTDTQQTKSFKV”, for which the “soluble fraction (log2)” value was -0.132.

Take “HMSSNLTVFTRNNAIIVNSDVVRKLNVFAVDGRLVRSVDLSVGENVINNISRGMYLIDKQKVVV”: the “soluble fraction (log2)” value is at least 0.43.

Consider “HMSSPDMSLLYSELDVKDSGQIVTILEQRNIPYEVRNNGSQIYIPSNNVQRIRLSLAQEGLPSG”, for which the “soluble fraction (log2)” value came out at 0.152.

Consider “HMSSPTAKATGSSVNIRKSASTGAAVLKRVEKGTVLEAVSISDGWVKVKYSGVTGYVSADYVKVSGL”, for which the “soluble fraction (log2)” value came out at 0.154.

“HMSSQGQNTKTGTVTASALYVRSGAGTNYSQIGYLLKNTKVEIVGQTGSWYKIKFGSGTGYVSSKYIK”: the “soluble fraction (log2)” value came to 0.0256.

As to “HMSSQLETTFATLIGKRVSIRLHDPEGGFRDILGHLESPYSLRNRHGNLIEFAHDQIFLWREVI”, the “soluble fraction (log2)” value was -1.18.

As for “HMSSRNLIIFYDSPQAENALLATAERYGAILLHHYRNLHGIAVAIPADKDMAQAVTYFSRQPGVRQV”, the “soluble fraction (log2)” value was 0.103.

Consider “HMSSSKVAISQFEELVDQGQVREVVIEGSTATGTTAAGRRFAAEIPPGGMELFLSKLDDAGTTYEYSPP”, for which the “soluble fraction (log2)” value was 0.127.

For “HMSSSYTEMQLDKLKKLLEKETLLSSEKSELKSLIHDFDKIPEVVSPLIVGEYLRLKNKYIAVINSLE”, the “soluble fraction (log2)” value was -0.322.

As to “HMSSSYTEMQLERFKELLNKETLLSSEKNELKNLISDFDKISEIVSPLVVGAYLQLKNEHIETINSLG”, the “soluble fraction (log2)” value was -0.846.

As for “HMSSTAIQAMIRRLIDGEDPRKPLSDARLAETLKASGVPVARRTVAKYRESMSIPSSQDRLRI”, the “soluble fraction (log2)” value is 0.0607.

For the sequence “HMSSTSTKTQNIVHIVKSGETLSAIASKYGVSVDNIKKWNNLSSDKLSIGQKLKINPTTQTSS”, the “soluble fraction (log2)” value is -0.186.

Take “HMSSVEEILQTLGGRIRTQRLAQGISQQVLADRAGLSLGAVRQLEGSGQSGLDTLVRVLFVLGIVDEL”: the “soluble fraction (log2)” value is -1.57.

In the case of “HMSSVHTMEVKSTTQIKVLDENKNLSSYYSMKNPVSFNYRLFFLNQDELKKLQEDLKTNNDIQSIDIKYA”, the “soluble fraction (log2)” value is -0.944.

As to “HMSTALTPLTTREREVLALMAEGLTNSGIAARLVLTDRTVETHVSRILHKLGLGETTTNEHRRVLAVLRYL”, the “soluble fraction (log2)” value was -0.716.

For “HMSTASPEELRQTPERRRLIEYLREHGGHGRTSEIAAALGIDDSTASRLLRRLADNGLIVRTQYGEYTLLQ”, the “soluble fraction (log2)” value was -0.0496.

For “HMSTEAVVMSSSVSVKSSPDKASTDLFVLHEGTKVRTVSELGDWREIVIADGKKGWVEARTIET”, the “soluble fraction (log2)” value is 0.151.

“HMSTEPLALVGKTGIAATVLRPSGRIEVDDKYYDAVSLGAFIEKGEMVNIVKYENLQLYVAKL”: the “soluble fraction (log2)” value was -0.0114.

For “HMSTFAQNLRALMEKRGVSQNELARSAGLTQSAINKILTGKTKQPGIDTTEAIARVLNVSVAQLIYT”, the “soluble fraction (log2)” value was 0.22.

On to “HMSTFTPYLVKVTTSVLNIRKGAGTNYGTNGSIRDMGTYTIVAEADGQGASKWGKLKSGAGWISLDYTKK”, for which the “soluble fraction (log2)” value came out at 0.184.

For the sequence “HMSTILERLIMLQEQSGMNQKQLQKELGLSNSAFSDWKKGKGRPSVEALVRFSEFFGVSMDWLAFG”, the “soluble fraction (log2)” value was -0.845.

As to “HMSTKRQKELLEYVDRFITEHGYGPSYREIMNAIGYKSVSTVAIHIDGLIAKGYLRKRDNSARSLEVV”, the “soluble fraction (log2)” value was determined as 0.249.

Consider “HMSTKYSSNIISLVKGLMEEDQYKDLMGPPLKKEIIKKVESITDTFPYKFDKDDKEFIVKKVLISLRK”, for which the “soluble fraction (log2)” value turned out to be 0.148.

Regarding “HMSTLKSALDEIPGIGAARKRALLNHFGSTRVISSVGVKDLEQVEGVSKKIALLIYGYFHDK”, the “soluble fraction (log2)” value is at least 0.43.

Turning to “HMSTLSIHIPDKFAGQRLDQALAELYSQFSRSRLQQWLNDGELLVDGKSVKANKKVLGGEFIQILK”, the “soluble fraction (log2)” value is -0.00612.

With “HMSTPENLGGRNTAKARISWLENGVKQELESDFPAAEVVKLSSRFGGEVPELTVIRPSLEDIYLKMIG”, the “soluble fraction (log2)” value was -0.269.

As to “HMSTPLVATLRKRIIDGHYPPGERLAEIPVAEAFGVSRTPVRLAFRTLEQEGLLEKAGKRGYAVRA”, the “soluble fraction (log2)” value is 0.0231.

Turning to “HMSTQVPDVKERSQEEARSILESAGFKVTPAVKTEDSADIAKDMVTKTDPAAGQSVPKGTTITIYVSS”, the “soluble fraction (log2)” value came to 0.298.

Consider “HMSTRLIGEIGVVTKDLGAGLKENGSIQIGREEWPAETKDMEHIPMGTRVKVIHIEGTRLVVEA”, for which the “soluble fraction (log2)” value is -0.266.

For the sequence “HMSTSRAEIIAFLKSNPSSEYKHELETKLDEMDWAEAVKGNSEESFLAYKQRQPNGTHNGEADEKLKVLLV”, the “soluble fraction (log2)” value is -0.171.

With “HMSTVISPLPGNIIKVLVPEGKSVKRGDTILTIESMKMENSIKAAYDGVVKKIYVQQAQIVMQGDPLFDL”, the “soluble fraction (log2)” value was -1.05.

With “HMSVALSENIKTRRKALKMSQEYVAEQLDISRQAVAKWEAGKSEPTTENLVKLAALFEMSVSELVE”, the “soluble fraction (log2)” value amounted to 0.35.

Take “HMSVDDVALRLEFGPSDAEALAFVHRHGAILSETTDRDTGVVSVHVRLSEADAGRFNQRYGV”: the “soluble fraction (log2)” value was -0.233.

Consider “HMSVDDYLKFSGSGTYWNTQDRGKTYLVNGQQRPLRDKEYLPDVMHRHVIDFITKHRDRPFYIYYSM”, for which the “soluble fraction (log2)” value is -0.0438.

Turning to “HMSVDVEGNQRIPTEQVLSELRDVGVSFGKRVSGLNADTIRNQMIINNDEIAWLGVNVRGSRVYVEITERI”, the “soluble fraction (log2)” value was -0.0219.

For “HMSVERIEPPLPLIDTLLALRDALERPLSREENAFLSRRFAGGATRAQIDALAAQFRGAAAAESKV”, the “soluble fraction (log2)” value is -0.324.

For “HMSVETSDLLPLIEQVLSLNPDKVKEYQNGKKGLLGFFMGQIKQTAGVAIDVGTLKPLLEDALHKDL”, the “soluble fraction (log2)” value was -1.06.

Turning to “HMSVEYRKTLSDGNEYQIVKEKNGYVIKKSLNEGLDYLEPMKNRKYYSSYSQAFKRLNLIAKEVNINEGYD”, the “soluble fraction (log2)” value stood at 0.0946.
